From paper PMC10501992, “How Pol α-primase is targeted to replisomes to prime eukaryotic DNA replication” (Molecular Cell, 2023)
Values belong to the binder of their own block, whether it stands above or below them.

How the values were obtained:
Conditions in all cases: both partners purified
[1] = target: T1, budding yeast CMG (Cdc45-Mcm2-7-GINS) replicative helicase (S. cerevisiae, UniProt Q08032 1-650; P29469 1-868; P24279 1-971; P30665 1-933; P29496 1-775; P53091 …); experiment: cryo-EM structure; budding yeast replisome: 150 nM CMG on fork DNA (39 nt 3′ flap, 60 nt 5′ flap) with 1.5-fold molar excess of Tof1-Csm3, Mrc1 and Pol α-primase; 25 mM HEPES-NaOH pH 7.6, 150 mM NaOAc, 0.5 mM TCEP, 500 μM AMP-PNP, 10 mM Mg(OAc)2, on ice; 10-30% glycerol gradient with glutaraldehyde and BS3 cross-linkers
T1 construct: Cdc45, S. cerevisiae; Mcm2, S. cerevisiae; Mcm3, S. cerevisiae; Mcm4, S. cerevisiae (named only within Mcm2-7); Mcm5, S. cerevisiae; Mcm6, S. cerevisiae (named only within Mcm2-7); Mcm7, S. cerevisiae (named only within Mcm2-7); Psf1, subunit of GINS, S. cerevisiae; Psf2, subunit of GINS, S. cerevisiae; Sld5, subunit of GINS, S. cerevisiae; source: S. cerevisiae strain yJY197, expressed and …

Mrc1 (budding yeast) = target: T2, Mrc1 (budding yeast) (S. cerevisiae, UniProt P25588 1-1096); experiment: as above
T2 construct: Mrc1, S. cerevisiae; several small sections modelled (S339-K323 as printed, D468-Q483, N842-E858); source: S. cerevisiae strain yJY32, expressed and purified as described previously
T2 sequence: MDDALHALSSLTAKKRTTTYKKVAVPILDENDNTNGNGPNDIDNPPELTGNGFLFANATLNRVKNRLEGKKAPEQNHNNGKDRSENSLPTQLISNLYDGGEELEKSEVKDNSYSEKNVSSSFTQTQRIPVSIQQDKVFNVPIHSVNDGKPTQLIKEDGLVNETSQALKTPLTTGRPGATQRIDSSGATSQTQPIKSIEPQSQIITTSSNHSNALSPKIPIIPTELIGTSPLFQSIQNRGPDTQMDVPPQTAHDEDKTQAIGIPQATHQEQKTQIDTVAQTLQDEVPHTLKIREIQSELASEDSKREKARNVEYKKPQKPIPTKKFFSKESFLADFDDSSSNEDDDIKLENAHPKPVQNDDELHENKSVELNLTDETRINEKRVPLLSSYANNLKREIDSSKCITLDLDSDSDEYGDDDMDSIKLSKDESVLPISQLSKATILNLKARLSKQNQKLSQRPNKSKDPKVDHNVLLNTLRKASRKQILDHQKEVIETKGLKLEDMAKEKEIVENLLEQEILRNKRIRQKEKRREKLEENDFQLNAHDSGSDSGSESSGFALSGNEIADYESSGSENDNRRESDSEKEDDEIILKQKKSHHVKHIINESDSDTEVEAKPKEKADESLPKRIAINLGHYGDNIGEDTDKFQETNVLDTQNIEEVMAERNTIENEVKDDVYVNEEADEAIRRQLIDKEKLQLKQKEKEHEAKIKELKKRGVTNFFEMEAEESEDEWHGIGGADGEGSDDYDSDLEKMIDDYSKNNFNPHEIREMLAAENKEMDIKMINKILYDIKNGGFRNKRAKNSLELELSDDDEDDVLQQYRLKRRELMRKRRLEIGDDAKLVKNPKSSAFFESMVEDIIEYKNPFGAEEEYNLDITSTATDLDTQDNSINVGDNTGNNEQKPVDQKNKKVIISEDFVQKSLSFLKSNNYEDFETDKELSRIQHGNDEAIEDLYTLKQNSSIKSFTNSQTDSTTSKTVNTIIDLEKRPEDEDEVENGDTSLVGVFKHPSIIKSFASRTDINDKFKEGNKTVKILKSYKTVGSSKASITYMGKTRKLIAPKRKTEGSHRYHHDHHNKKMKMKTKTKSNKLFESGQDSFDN

[2] = target: T3, PRIM2 (human primase accessory subunit) (human, UniProt P49643 1-509); experiment: cryo-EM structure; human replisome: 150 nM CMG on fork DNA (60 nt or 15 nt 5′ flap) with 1.5-fold molar excess of AND-1, TIMELESS-TIPIN, CLASPIN and Pol α-primase; 25 mM HEPES-NaOH pH 7.6, 150 mM NaOAc, 0.5 mM TCEP, 500 μM AMP-PNP, 10 mM Mg(OAc)2, on ice; 10-30% glycerol gradient with glutaraldehyde and BS3 cross-linkers
T3 construct: PRIM2, human; modelled residues 1-5 (N terminus) and 17-252 (NTD); stood in the assay as a subunit of m18; also called PRIM2NTD; PRIM2_(Nterm)
T3 sequence: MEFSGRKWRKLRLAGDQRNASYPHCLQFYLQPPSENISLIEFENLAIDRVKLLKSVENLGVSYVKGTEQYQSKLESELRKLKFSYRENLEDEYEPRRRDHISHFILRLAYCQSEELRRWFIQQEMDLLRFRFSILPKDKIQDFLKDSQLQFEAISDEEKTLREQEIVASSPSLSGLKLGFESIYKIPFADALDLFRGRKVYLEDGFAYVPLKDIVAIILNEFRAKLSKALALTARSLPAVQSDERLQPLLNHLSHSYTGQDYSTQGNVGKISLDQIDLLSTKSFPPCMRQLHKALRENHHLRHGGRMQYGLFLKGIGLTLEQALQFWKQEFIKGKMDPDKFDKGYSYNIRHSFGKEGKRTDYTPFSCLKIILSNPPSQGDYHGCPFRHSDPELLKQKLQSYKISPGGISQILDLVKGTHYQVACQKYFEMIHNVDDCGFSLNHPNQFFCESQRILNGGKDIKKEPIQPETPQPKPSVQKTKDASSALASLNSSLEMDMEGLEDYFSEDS

- binding result [1]: binds
B1: Tof1-Csm3 (budding yeast) (complex, S. cerevisiae)
chain 1: MSADLQQGTTNAADFSLTVLRARIALLATAIGGPDYTSQIDPPPYKLGDDCLACLKDLKRWFKLVDDQQKRWDVAMAVAEYRILTDDLLPILIDWENKCSLAAKLAKNNPDHEEFRNKAYYDKIALNCLQLLVLMTWPLIVTEQSSSNQITLYGELKKHQLVYKKTILSMESGKVLRAAIRLALDVIKIDRLSRTPRDNMVLKLVLNFFRNVIAIEPGEFTINTKKSMPKKGITSIDTLPPNVSMDDISLNTVISSFHKNKVFGFLLTLTSSLSKEFDQDFINIPLLEIMFYFTKDVNQELLFPRQFETGTHSKVVNKNESSSANNIVTSAGFELSKLLQKEHQMRKNVIKHTSARHSRFGGLLSIQTPDKTRLTVSGSQALVDEKIALQKLDDSKKWNKRIIKKHQSVAAEGLPNSLLNSQTGKAIFFTESNGKHFKEFINNFIDSGFNILLHSVTNYFTTEQDRMVTLEQVEYLLFFAWFVKYQLLRSKIDNSADIKQVSEALKEVTFILVSSLLRSAYDLKNWTVTHAGMIAFNELLNLVSRTKAAQEEDSTDIEFIVSRLFSDERIQLLSNLPKIGSKYSLQFMKSCIELTHSVLKVLEQYSDDKTLVIEGKSRRQKKFNISEGDITKLIEEENVDRDEALDILTSSLRSIEVNFQKVQANYMTEPVIETYINFLERFRELEDDSIKKVFSFFHRVFVQAKEQALLFRFDLIILLREMLSPDGLDRMSRSRKYVSQFSDYFLARLKKRLKKSPAWFVGLLFPPLHNSEVGFYQRYGEYNVLNNESMYAAPASQFKPIPDEEALPPSILLDMKYGVLVSTLLDDGKTELLDQLLKHITHTLDIFKSWLTVNVNAGKETVNPPNEYFTLTGVLNNDPIFKDKDYRALLLLIGYSIPRKINEPCFLPGTVEVSDLTVSCELVKKYLSTPFETPNGLPSSSYLLRVRSEKDSFSHNEQDGWEGDDDYDYNDPYIVPDDQILSKSDAAYFKDLDNNASDKLKGTKFSKGIARSKKKDKRKRRKGEAKTNLPMFGDQDDERPQTVRERHGVFSKEFISDSEDDEDLMNPIFFENETYMRWLLDKNNGQLTEDRYIQFAKFAAERMNNGGVVTGDYTSLFGGSIPSIESIRATESSSFAPDKSLISLASHVASEMSIFDVNNNNNNQLSDDDVNSESRNSLGSSQPSNSQNMFQSEVYSRKESTKRSLEASAADESDEDEEAIRLFGKKSRVVLSQGDSDD
chain 2: MDQDFDSLLLGFNDSDSVQKDPTVPNGLDGSVVDPTIADPTAITARKRRPQVKLTAEKLLSDKGLPYVLKNAHKRIRISSKKNSYDNLSNIIQFYQLWAHELFPKAKFKDFMKICQTVGKTDPVLREYRVSLFRDEMGMSFDVGTRETGQDLERQSPMVEEHVTSAEERPIVADSFAQDKRNVNNVDYDNDEDDDIYHLSYRNRRGRVLDERGNNETVLNNVVPPKEDLDALLKTFRVQGPVGLEENEKKLLLGWLDAHRKMEKGSMTEEDVQLIQSLEEWEMNDIEGQHTHYDLLPGGDEFGVDQDELDAMKEMGF
notes: Tof1, S. cerevisiae; Csm3, S. cerevisiae; source: S. cerevisiae strain yAE48, expressed and purified as described previously

- binding result (Mrc1 (budding yeast)): binds
B2: Cdc45 (budding yeast) (natural protein, S. cerevisiae, UniProt Q08032 1-650, looked up)
chain: MYYGISQFSEAYNKILRNSSSHSSCQLVIFVSCLNIDALCATKMLSLLFKKQLVQSQIVPIFGYSELRRHYSQLDDNINSLLLVGFGGVIDLEAFLEIDPQEYVIDTDEKSGEQSFRRDIYVLDAHRPWNLDNIFGSQIIQCFDDGTVDDTLGEQKEAYYKLLELDEESGDDELSGDENDNNGGDDEATDADEVTDEDEEDEDETISNKRGNSSIGPNDLSKRKQRKKQIHEYEGVLEEYYSQGTTVVNSISAQIYSLLSAIGETNLSNLWLNILGTTSLDIAYAQVYNRLYPLLQDEVKRLTPSSRNSVKTPDTLTLNIQPDYYLFLLRHSSLYDSFYYSNYVNAKLSLWNENGKKRLHKMFARMGIPLSTAQETWLYMDHSIKRELGIIFDKNLDRYGLQDIIRDGFVRTLGYRGSISASEFVEALTALLEVGNSTDKDSVKINNDNNDDTDGEEEEDNSAQKLTNLRKRWVSNFWLSWDALDDRKVELLNRGIQLAQDLQRAIFNTGVAILEKKLIKHLRIYRLCVLQDGPDLDLYRNPLTLLRLGNWLIECCAESEDKQLLPMVLASIDENTDTYLVAGLTPRYPRGLDTIHTKKPILNNFSMAFQQITAETDAKVRIDNFESSIIEIRREDLSPFLEKLTLSGLL
notes: Cdc45, S. cerevisiae; stood in the assay as a subunit of m2; source: subunit of CMG from S. cerevisiae strain yJY197, purified as described previously

- binding result (Mrc1 (budding yeast)): binds
B3: Mcm2 (budding yeast) (natural protein, S. cerevisiae)
chain: MSDNRRRRREEDDSDSENELPPSSPQQHFRGGMNPVSSPIGSPDMINPEGDDNEVDDVPDIDEVEEQMNEVDLMDDNMYEDYAADHNRDRYDPDQVDDREQQELSLSERRRIDAQLNERDRLLRNVAYIDDEDEEQEGAAQLDEMGLPVQRRRRRRQYEDLENSDDDLLSDMDIDPLREELTLESLSNVKANSYSEWITQPNVSRTIARELKSFLLEYTDETGRSVYGARIRTLGEMNSESLEVNYRHLAESKAILALFLAKCPEEMLKIFDLVAMEATELHYPDYARIHSEIHVRISDFPTIYSLRELRESNLSSLVRVTGVVTRRTGVFPQLKYVKFNCLKCGSILGPFFQDSNEEIRISFCTNCKSKGPFRVNGEKTVYRNYQRVTLQEAPGTVPPGRLPRHREVILLADLVDVSKPGEEVEVTGIYKNNYDGNLNAKNGFPVFATIIEANSIKRREGNTANEGEEGLDVFSWTEEEEREFRKISRDRGIIDKIISSMAPSIYGHRDIKTAVACSLFGGVPKNVNGKHSIRGDINVLLLGDPGTAKSQILKYVEKTAHRAVFATGQGASAVGLTASVRKDPITKEWTLEGGALVLADKGVCLIDEFDKMNDQDRTSIHEAMEQQSISISKAGIVTTLQARCSIIAAANPNGGRYNSTLPLAQNVSLTEPILSRFDILCVVRDLVDEEADERLATFVVDSHVRSHPENDEDREGEELKNNGESAIEQGEDEINEQLNARQRRLQRQRKKEEEISPIPQELLMKYIHYARTKIYPKLHQMDMDKVSRVYADLRRESISTGSFPITVRHLESILRIAESFAKMRLSEFVSSYDLDRAIKVVVDSFVDAQKVSVRRQLRRSFAIYTLGH
notes: Mcm2, S. cerevisiae; stood in the assay as a subunit of m2; source: subunit of CMG from S. cerevisiae strain yJY197, purified as described previously

- binding result [2]: binds
B4: PSF2 (human GINS subunit) (natural protein)
chain: MDAAEVEFLAEKELVTIIPNFSLDKIYLIGGDLGPFNPGLPVEVPLWLAINLKQRQKCRLLPPEWMDVEKLEKMRDHERKEETFTPMPSPYYMELTKLLLNHASDNIPKADEIRTLVKDMWDTRIAKLRVSADSFVRQQEAHAKLDNLTLMEINTSGTFLTQALNHMYKLRTNLQPLESTQSQDF
notes: PSF2, subunit of GINS, human; stood in the assay as a subunit of m19
